Laboratory results as given in paper PMC8406831, “High-resolution structure of the amino acid transporter AdiC reveals insights into the role of water molecules and networks in oligomerization and substrate binding” (BMC Biology, 2021).

B1: AdiC-Q88E (natural protein, E. coli)
chain: MSSDADAHKVGLIPVTLMVSGNIMGSGVFLLPANLASTGGIAIYGWLVTIIGALGLSMVYAKMSFLDPSPGGSYAYARRCFGPFLGYETNVLYWLACWIGNIAMVVIGVGYLSYFFPILKDPLVLTITCVVVLWIFVLLNIVGPKMITRVQAVATVLALIPIVGIAVFGWFWFRGETYMAAWNVSGLGTFGAIQSTLNVTLWSFIGVESASVAAGVVKNPKRNVPIATIGGVLIAAVCYVLSTTAIMGMIPNAALRVSASPFGDAARMALGDTAGAIVSFCAAAGCLGSLGGWTLLAGQTAKAAADDGLFPPIFARVNKAGTPVAGLIIVGILMTIFQLSSISPNATKEFGLVSSVSVIFTLVPYLYTCAALLLLGHGHFGKARPAYLAVTTIAFLYCIWAVVGSGAKEVMWSFVTLMVITAMYALNYNRLHKNPYPLDAPISKD
notes: AdiC, L-arginine/agmatine transporter of E. coli (gene from XL1-Blue genomic DNA, vector pZUDF21) with the point mutation Q88E; Residues of the HRV3C site may remain at the C-terminus after cleavage; source: E. coli BL21(DE3) pLysS, purified (Ni-NTA in DDM, on-column HRV3C cleavage); not shown: deca His-tag, C-terminal, cleaved
B2: AdiC-T421V (natural protein, E. coli)
chain: MSSDADAHKVGLIPVTLMVSGNIMGSGVFLLPANLASTGGIAIYGWLVTIIGALGLSMVYAKMSFLDPSPGGSYAYARRCFGPFLGYQTNVLYWLACWIGNIAMVVIGVGYLSYFFPILKDPLVLTITCVVVLWIFVLLNIVGPKMITRVQAVATVLALIPIVGIAVFGWFWFRGETYMAAWNVSGLGTFGAIQSTLNVTLWSFIGVESASVAAGVVKNPKRNVPIATIGGVLIAAVCYVLSTTAIMGMIPNAALRVSASPFGDAARMALGDTAGAIVSFCAAAGCLGSLGGWTLLAGQTAKAAADDGLFPPIFARVNKAGTPVAGLIIVGILMTIFQLSSISPNATKEFGLVSSVSVIFTLVPYLYTCAALLLLGHGHFGKARPAYLAVTTIAFLYCIWAVVGSGAKEVMWSFVTLMVIVAMYALNYNRLHKNPYPLDAPISKD
notes: AdiC, L-arginine/agmatine transporter of E. coli (gene from XL1-Blue genomic DNA, vector pZUDF21) with the point mutation T421V; Residues of the HRV3C site may remain at the C-terminus after cleavage; source: E. coli BL21(DE3) pLysS, purified (Ni-NTA in DDM, on-column HRV3C cleavage); not shown: deca His-tag, C-terminal, cleaved
B3: AdiC-Y367F (natural protein, E. coli)
chain: MSSDADAHKVGLIPVTLMVSGNIMGSGVFLLPANLASTGGIAIYGWLVTIIGALGLSMVYAKMSFLDPSPGGSYAYARRCFGPFLGYQTNVLYWLACWIGNIAMVVIGVGYLSYFFPILKDPLVLTITCVVVLWIFVLLNIVGPKMITRVQAVATVLALIPIVGIAVFGWFWFRGETYMAAWNVSGLGTFGAIQSTLNVTLWSFIGVESASVAAGVVKNPKRNVPIATIGGVLIAAVCYVLSTTAIMGMIPNAALRVSASPFGDAARMALGDTAGAIVSFCAAAGCLGSLGGWTLLAGQTAKAAADDGLFPPIFARVNKAGTPVAGLIIVGILMTIFQLSSISPNATKEFGLVSSVSVIFTLVPYLFTCAALLLLGHGHFGKARPAYLAVTTIAFLYCIWAVVGSGAKEVMWSFVTLMVITAMYALNYNRLHKNPYPLDAPISKD
notes: AdiC, L-arginine/agmatine transporter of E. coli (gene from XL1-Blue genomic DNA, vector pZUDF21) with the point mutation Y367F; Residues of the HRV3C site may remain at the C-terminus after cleavage; source: E. coli BL21(DE3) pLysS, purified (Ni-NTA in DDM, on-column HRV3C cleavage); not shown: deca His-tag, C-terminal, cleaved

Molecular target: the molecule itself
Assay: SEC; Superdex 200 5/150 GL, 20 mM Tris-HCl, pH 8.0, 150 mM NaCl, 0.04% (w/v) DDM; elution volumes of the mutants compared with the wild type

Binding result, binds:
B1
B2
B3
